Data published in the supplement of paper PMC9942255.
Several values for one entry are separate records, joined by “and”; a condition that tells them apart may be missing. Identical values can stand only once.

Tested on: Bacillus subtilis DB104 (SP-AmyQ fusion secretion)
Assay: AmyQ secretion efficiency, weighted average sort bin (1 = best secretion, 10 = worst) (bin number (weighted average, 1-10)); higher = lower secretion efficiency
Method in brief: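 A B. subtilis DB104 library carrying amyE-integrated fusions of designed signal peptides to mature AmyQ was encapsulated at about 0.3 cells per ~65 nL alginate bead with fluorescein-starch and grown about 13 h at room temperature. Following nile red staining, occupied beads were flow-sorted as large particles into 10 equally populated bins by green/red fluorescence ratio, and the bin amplicons were Illumina-sequenced. The secretion score is the read-frequency-weighted average bin number normalised to beads per bin, leaving out low-abundance sequences.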

| Sequence | AmyQ secretion efficiency |
| --- | --- |
| MKLAKRVSALTPSTTLAITVKAKEL | 6.82 |
| MRIFKKTYSQQGQTFLIATVNVNTAHAAID | 8.8 |
| MKSKGSIMACLILFSFTITTFINTETISPFSN | 7.51 |
| MKLWMRKTLVVLFTIVTFGLVSPPAALMFDKP | 3.85 |
| MLKKIALTLCPAIVGSLLFFTVILITAPASAHVS | 3.87 |
| MTKKAKKKKLVCVLLISGWLAPAASASAQTT | 2.39 |
| MKWMCSICCAAVLLAGGAFQAEAV | 4.41 |
| MKWMCSICCAAVLLAGGAPTFAQAEAV | 3.68 |
| MKRRRRKIWTIILGALLVCCIAVAYTLTKSQAGASSS | 5.49 |
| MSSCGGILIVCSLAAILLLIPSVSFAADS | 4.26 |
| MAAQTDYKKQVVGILLSLAFVLFVFSRSERHE | 4.39 |
| MFKKHTISLLIIFLLASAVLAKPAEAHTV | 2.44 |
| MPYLKRVLLLLVTGLFMSLFAVTATKSAQTG | 4.38 |
| MRKSLITLGLASVIGTSSFLIPFTSKTASAETL | 2.73 and 5.9 and 4.16 |
| MKKTIMSFVAVAALSTTAFGAHVSAKEI | 2.83 |
| MAIIIAIIAAVIVIAALITFNVANASPG | 5.63 |
| MLKKKWMVGLLAGCLAAGGFSYNAFWTEN | 6.56 |
| MHRRRKAAGAVCLAVVLIAGCRFNEDQHQAEGENT | 4.73 |
| MPYLKRVLLLLVTGLFMSLFAVTATASNQTG | 1.29 |
| MRNLTKTSLLLAGLCTAAQMVFVTHASGEES | 2.76 |
| MLCVMMLLFSAIASFPVSAQAKKK | 7.53 |
| MKRILFLLSTLLIGIMLLTFAPSAFAKQD | 1.83 |
| MHLIRAAGAVCLAVVLIAGCRDEEDEHQAEGENT | 4.66 |
| MNKFLKSNFRFLLAAALGISLLASSNFCKASND | 1.73 |
| MKQIMIFLTSFMLLAMTGQTCLAKDV | 3.75 |
| MKKSQYFIVFICFFVLFSVHPIAAAFADS | 5.18 |

| Sequence | AmyQ secretion efficiency |
| --- | --- |
| MKRFLIGAGVAASGWFIADHQTHSQEM | 6.73 |
| MRPVFPLILSAVLFLSCFFGARQTEASASED | 3.13 |
| MHLIRAAGAVCLAVVLIAGCRFNEDQHQVEGENT | 4.66 |
| MMTLCVMMLLFSAIASFPVSAQAKDQ | 7.11 |
| MRPVFPLKKRRVLFLSCFFGARQTEASASKR | 7.34 |
| MKKRLIGFLVLVPALIKSGITLIEANKK | 6.34 |
| MKFVKRRGSRGQTTSTLSVTSLFALQPSAKAAEH | 5.84 |
| MGLGKKLSVAVAASFMSLSISLPGVQLAEG | 4.12 |
| MKTKTLFIFSAILTLSIFAPNEAFAQTA | 1.47 |
| MKVLLSALLLLLFAFEPSTVVTAATAVASGKKL | 2.96 |
| MKKWMITIAMLILAGIALFVFISPYKSHKT | 6.74 |
| MMIKQNMSSNSSCVICLSLLVFGTTAAHAEET | 4.39 |
| MRSYIKVLTMCFLGLILFVPTPLADNS | 5.93 |
| MTRLLSTLLIGIMLLTFAPSAFAKQD | 1.6 |
| MKRLRRKRRRWMVFLMNWVTPDRKTAAAAVY | 6.85 |
| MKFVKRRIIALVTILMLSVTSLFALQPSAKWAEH | 5.19 |
| MRKKTKNRLISSQKSTVVISSLLFPGAAGASSK | 8.12 |
| MHLIRARRRVCLAVVLIAGCRFNEDQHQAEGENT | 6.03 |
| MRKVITCVMAASLTLGSLLPAGYATAKED | 3.88 |
| MTMLRKIIGWILLLCIIPLFAFTVIASAKEV | 4.98 |
| MRFTKVVGFLSVLGLAATTTFIVFPLTAQAEKA | 1.5 |
| MKKELLASLVLCLSLKRRKRTNRVFAATT | 7.57 |
| MKLRKVLTGSVLSLGLLRKKSPAFATSP | 8.19 |
| MRKKRVITCVMAASLTLGSLLPAGYASTKED | 2.82 |
| MSLYTVIASILLSFLSVLSGGHHESKAFPV | 5.37 |
| MKRTWNRQRKVCLTALLSVLLVAGSVPFHAEAKKP | 2.09 |

| Sequence | AmyQ secretion efficiency |
| --- | --- |
| MKKISSVMLATALFLGLTPAGANAADL | 3.26 |
| MFNRLFRVCFLAALIMAFTLPNSVVTSVYAQKP | 2.32 |
| MGLGKKLMVAVAAIFMMLMIFLPGVQAAEG | 1.54 |
| MKRFSTAYLLLLGILCSAAVFLIGAPSRALGAEV | 3.05 |
| MKRRRKPYTKKLALGAALTIAPLSFASAEEN | 6.27 |
| MGMKKKLSLGVASAALGLALVGGGTWCAFN | 4.28 |
| MFNRLFRVCFLAALIMAFTLPNSSYAQKP | 2.08 |
| MRPKRPRKLILSAVLFLSCFFGARQTEASASKR | 4.56 |
| MKLSVKIAGVLTVAAAAMTAKMYATQKGN | 7.51 |
| MKNMSCKLVVSVTLFFSFLGIFVLAHAQNS | 4.32 |
| MKRLTLVCSIVFILFILFYDLKIGTIPIQDLPVYEESAKTA | 5.76 |
| MKKRLIGFLVLVPALIMSGITLDEANKK | 4.52 |
| MKSKGSIMSACLILFSFTITTFINTETISAFSN | 3.07 |
| MRSYIKVLTMCFLGLILFVPTYLADNS | 7.74 |
| MKKVLMAFIICLSLILSVLAAPPSGNKAESV | 4.42 |
| MLKKIALTLCPAIVGSLLFFTDEDDEEASAHVS | 5.14 |
| MAIIIAIIAAVIVIAALITFNVRNSSPG | 8.62 |
| MAIIIAIIAAVIVIAALITFNVRNCSPG | 5.87 |
| MRMLWRSLALCGLALTLAPCAQGAEP | 2.58 |
| MKSKWMSGLLLVAVGFSFTQVMVHLGET | 7.17 |
| MKLSVKIAGVLTVAAAAMTAGMYATAKGN | 5.78 |
| MNLRKILLSSALSLGMLVSAAPQLATSS | 4.11 |
| MSTFLIGAGVAAVILSGWFIADHQTHSQEM | 6.2 |
| MKLKSKLLLSCLALSTVFVATTIKNAPTH | 6.58 |
| MKKKQVMLALTAAAGLGLTALAIVSSFVHSAPAAKAAPL | 5.73 |
| MKKRKRRNFKRFIAAFLVLALMISGVPADVLAKST | 2.12 |

| Sequence | AmyQ secretion efficiency |
| --- | --- |
| MKRFSTAYLLLGILCSAAVFLIGAPSRCLGAEV | 3.15 |
| MKKIGLLFMLCLAALRRRKRKRQQADAAEA | 6.59 |
| MGSTWSLIVCLTALLSVLLVAGSVPFHAEAKKP | 4.11 |
| MKWMCSICCAAVLLAGLGAAQAEAV | 3.8 |
| MKWMCSICCAAVLLAGGAAQIEAV | 2.05 |
| MRIFKKAVFVIMISFLIATVNVNTAHAKKR | 2.09 |
| MKKWLRRAVSLAIAIVLFMYTKGEAKAAGM | 2.72 |
| MKRTWNVCLTALLSVPFHAEAKKP | 6.8 |
| MPYLKRVLLLLVFFLFMFLFSAVTATASAQTG | 1.35 |
| MKKKIVALLAVIAVVSGSSMAAAPAEAKTI | 3.11 |
| MYKKFVPFAVFLFLFFVSFEMMENCHALDY | 7.9 |
| MTMLRKIIGWILLLCIIPEFAFTVIASGKEV | 5.32 |
| MKSKGSIMACLILFSFTITTFINTETISAFRR | 6.09 |
| MKLKKRVSMFLVALTMCGGLFVTAAKAVKT | 4.92 |
| MLCVMMLLFSAIASFPVSAQCKDQ | 6.94 |
| MKNMSCKLVVSVTLFFSFLTIGPLAHQQNS | 5.78 |
| MKKWMASTSFSMGLFLAAAVLLCLMVPQQIQGASS | 5.01 |
| MKKWIYVVLVLSIAGIGGFSVHIASS | 6.47 |
| MLKKKWMVGLLAGCLAAGTTSAAFTFFTGFSYNAFATEN | 7.04 |
| MNLRKILLSSALSLGMLVSAAPVLVTSS | 6.87 |
| MKKKKAAAVLLSLGLVFGFSYGAGHVAEAKTK | 1.65 |
| MGMKKKLSLGVASAALGLALVGGGSWAAFN | 6.13 |
| MKLRKVLTGSVLSLGLLVSASPAFAEEE | 2.06 |
| MKVPKTMLKKRKRKLLLSLTATSVSAHYV | 5.33 |
| MAIIIAIIAAVIVIAALITFNVRNGSPG | 7.66 |
| MLKKVILAAFILVGSTLGEDSFSSDASAKHV | 4.32 |

| Sequence | AmyQ secretion efficiency |
| --- | --- |
| MKRLLSSLAISALSLGLLVSAPTASFAAES | 2.75 |
| MKRLLSTLLIGIMLLTFAPSAFAAQK | 1.73 |
| MFSIGSIMACLILFSFTITTFINTETISAFSN | 5.65 |
| MFKFKKNFRRRRRRALMSISLFSATASAAST | 6.72 |
| MNFKKTVVSALSISALALKKRGVASAHEI | 6.98 |
| MPINTFVMMCLAVTLVFGSMSFPTLTNSGGFKE | 7.23 |
| MRKNRIKRKKVLSLGLLSFMVTPVSAASK | 7.91 |
| MAIIIAIIAAVIVIAALITFNVFNASPG | 7.58 |
| MLNGIISFLLVSFVLFFALSTGITGVQAAPA | 3.09 |
| MKVCQKSIVRFLVSLIIGTFVISVPFMANAQSK | 2.23 |
| MKRIRIPMTLALGAALTIAPLSFASNEEN | 7.9 |
| MKSKGSIMACLILFSFTITTFINTETISYFSN | 7.41 |
| MFGTLFRVCFLAALIMAFTLPNSVYAQKP | 2.52 |
| MKSKGSIMACLILFSFTITTFISVETISAFSN | 5.39 |
| MKRQGKSKSYAAVILSGWFIADHQTHSQEM | 7.16 |
| MRNLTKTSLLLAGLCTAAQMVFVTHASAKKK | 3.84 |
| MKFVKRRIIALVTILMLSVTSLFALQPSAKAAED | 2.86 |
| MNFKKTVRKRRSISALALSVSGVASAHEI | 7.55 |
| MGLGKKLSVAVAASFMSLSISLPGVQNAEG | 2.95 |
| MLKRTSFVSSLFISSAVLLSILLPSGQAHAQKR | 2.41 |
| MMIKQCRKCKRLLVFGTTAAHAEET | 6.79 |
| MKRIRIPMTLALGAALTIAPLLSFASAEEN | 4.21 |
